According to patent publication US20250277029A1 (Amgen, published 2025):

Legend:
[1] = biological target: human cannabinoid receptor 1 (huCB1), full length, expressed on cells (human, UniProt P21554 1-472); test: cell-based or functional assay
[2] = biological target: T1, His-tagged huCB1-ND (human, UniProt P21554 99-414, limits assumed); test: flow cytometry, yeast-displayed Fab, 0.5 nM CB1 ND
T1 construct: The real construct may be truncated or engineered; also called CB1-nanodisc; not shown: histidine purification tag
T1 sequence (P21554 99-414 limits assumed): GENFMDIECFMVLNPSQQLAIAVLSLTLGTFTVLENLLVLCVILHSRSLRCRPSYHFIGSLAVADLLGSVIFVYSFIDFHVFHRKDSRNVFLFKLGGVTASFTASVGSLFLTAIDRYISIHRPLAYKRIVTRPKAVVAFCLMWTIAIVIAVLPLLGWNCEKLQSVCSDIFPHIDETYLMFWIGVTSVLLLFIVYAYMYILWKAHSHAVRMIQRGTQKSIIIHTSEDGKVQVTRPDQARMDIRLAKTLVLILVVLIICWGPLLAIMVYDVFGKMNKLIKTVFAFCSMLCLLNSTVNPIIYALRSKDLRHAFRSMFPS

[3] = biological target: T2, GFP-fused huCB1-SMALP (human, UniProt P21554 1-472); test: flow cytometry, yeast-displayed Fab, 5 nM CB1 SMALP
T2 construct: Human CB1 fused to GFP in styrene maleic acid lipoparticles, made as in Luna et al. 2018; also called huCB1-GFP-SMALP; GFP-tagged huCB1-SMALP; not shown: GFP fused to huCB1
T2 sequence (P21554 whole entry, the tested form may be a part): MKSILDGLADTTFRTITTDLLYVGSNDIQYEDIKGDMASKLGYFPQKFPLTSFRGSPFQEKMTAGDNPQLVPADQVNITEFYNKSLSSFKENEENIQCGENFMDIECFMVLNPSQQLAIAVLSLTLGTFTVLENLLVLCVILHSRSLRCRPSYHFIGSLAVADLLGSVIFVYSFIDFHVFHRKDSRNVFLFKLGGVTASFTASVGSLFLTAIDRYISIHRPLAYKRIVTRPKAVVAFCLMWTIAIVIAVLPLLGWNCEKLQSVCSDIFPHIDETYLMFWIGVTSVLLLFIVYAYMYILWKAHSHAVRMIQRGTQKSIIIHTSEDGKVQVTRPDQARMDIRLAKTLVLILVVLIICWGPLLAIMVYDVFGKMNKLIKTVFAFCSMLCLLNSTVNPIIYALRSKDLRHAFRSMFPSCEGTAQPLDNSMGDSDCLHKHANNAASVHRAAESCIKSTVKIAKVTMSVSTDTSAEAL

[4] = biological target: T3, Empty ND; test: flow cytometry, yeast-displayed Fab, 50 nM Empty ND
T3 construct: It carries no receptor; the scaffold is its only protein; also called empty nanodisc

[5] = biological target: T2, GFP-fused huCB1-SMALP; test: flow cytometry, yeast-displayed Fab, 10 nM CB1 SMALP

human cannabinoid receptor 1 (huCB1), full length, expressed on cells, sequence (P21554 whole entry): as the sequence (P21554 whole entry, the tested form may be a part) above

| Binder | Mean IC50 (nM), cAMP antagonist assay [1] [nM] | Mean IC50, -fold vs Rimo [1] [fold vs Rimonabant] | n = 1 IC50 (nM), cAMP antagonist assay [1] [nM] | n = 1 IC50, -fold vs Rimo [1] [fold vs Rimonabant] | n = 2 IC50 (nM), cAMP antagonist assay [1] [nM] | n = 2 IC50, -fold vs Rimo [1] [fold vs Rimonabant] | relative binding fold change compared to LIBC523797-1(Fab) [2] [fold] | relative binding fold change compared to LIBC523797-1(Fab) [3] [fold] | relative binding fold change compared to LIBC523797-1(Fab) [4] [fold] | relative binding fold change compared to LIBC523797-1(Fab) [5] [fold] |
| --- | --- | --- | --- | --- | --- | --- | --- | --- | --- | --- |
| LIBC528141-1 (antibody, V domains shown) VH: QVQLQESGPGLVKPSQTLSLTCTVSGGSIRRGGDYWSWIRQHPGKGLEWIGHVYQTGSTKYNPRFKGRATISVNTYKNQFSLKLSSVTAADTAVYYCARDYDILTGYSYYYYGMDVWGQGTTVTVSS VL: DIQLTQSPSTLSASVGDRVTITCRASQSISNYLNWYQQKPGKAPKLLIYAASSLHSGVPSRFSGSGSGTDFTLTISSLQPEDFASYYCQQYQSYPLTFGQGTKVEIKR | 4.05 | 1.35 | 6.26 | 1.49 | 1.84 | 1.03 |  |  |  |  |
| LIBC527968-1 (antibody, V domains shown) VH: QVQLQESGPGLVKPSQTLSLTCTVSGGSIRRGGDYWSWIRQHPGKGLEWIGHIYQSGSTKYNPSFKDRATISVNTYKNQFSLKLSSVTAADTAVYYCARDYDILTGYSYYYYGMDVWGQGTTVTVSS VL: DIQLTQSPSTLSASVGDRVTITCRASQSISNYLNWYQQKPGKAPKLLIYAASSLHSGVPSRFSGSGSGTDFTLTISSLQPEDFASYYCQQYQSYPLTFGQGTKVEIKR | 4.03 | 1.34 | 6.1 | 1.45 | 1.95 | 1.09 |  |  |  |  |
| LIBC527912-1 (antibody, V domains shown) VH: QVQLQESGPGLVKPSQTLSLTCTVSGGSIRRGGDYWSWIRQHPGKGLEWIGYIYQTGQTKYNPNFEGRATISVNTYKNQFSLKLSSVTAADTAVYYCARDYDILTGYSYYYYGMDVWGQGTTVTVSS VL: DIQLTQSPSSLSASVGDRVTITCRASQSISSYLNWYQQKPGKAPKLLIYAASSLRSGVPSRFSGSGSGTDFTLTISSLQPEDFATYYCQQYSNYPLTFGGGTRVEIKR | 3.95 | 1.32 | 5.91 | 1.4 | 1.99 | 1.11 |  |  |  |  |
| LIBC527906-1 (antibody, V domains shown) VH: QVQLQESGPGLVKPSQTLSLTCTVSGGSIRRGGDYWGWIRQHPGKGLEWIGHIYQTGSTNYNPNFKDRATISVDTYKNQFSLKLSSVTAADTAVYYCARDYDILTGYSYYYYGMDVWGQGTTVTVSS VL: DIQLTQSPSTLSASVGDRVTITCRASQSISNYLNWYQQKPGKAPKLLIYAASSLHSGVPSRFSGSGSGTDFTLTISSLQPEDFASYYCQQYQSYPLTFGQGTKVEIKR | 5.15 | 1.72 | 7.66 | 1.82 | 2.64 | 1.48 |  |  |  |  |
| LIBC528148-1 (antibody, V domains shown) VH: QVQLQESGPGLVKPSQTLSLTCTVSGGSIRRGGDYWSWIRQHPGKGLEWIGHIYQSGQTKYNPKLKGRATISVDTYKNQFSLKLSSVTAADTAVYYCARDYDILTGYSYYYYGMDVWGQGTTVTVSS VL: DIQLTQSPSTLSASVGDRVTITCRASQSISNYLNWYQQKPGKAPKLLIYAASSLHSGVPSRFSGSGSGTDFTLTISSLQPEDFASYYCQQYQSYPLTFGQGTKVEIKR | 5.95 |  | 9.1 |  |  |  |  |  |  |  |
| LIBC528169-1 (antibody, V domains shown) VH: QVQLQESGPGLVKPSQTLSLTCTVSGGSIRRGGDYWSWIRQHPGKGLEWIGHIYQSGSTKYNPSFEDRATISVNTYKNQFSLKLSSVTAADTAVYYCARDYDILTGYSYYYYGMDVWGQGTTVTVSS VL: DIQLTQSPSTLSASVGDRVTITCRASQSISNYLNWYQQKPGKAPKLLIYAASSLHSGVPSRFSGSGSGTDFTLTISSLQPEDFASYYCQQYQSYPLTFGQGTKVEIKR | 7.81 | 2.6 | 12.3 | 2.92 | 3.31 | 1.85 |  |  |  |  |
| LIBC527827-1 (antibody, V domains shown) VH: QVQLQESGPGLVKPSQTLSLTCTVSGGSIRRGGDYWGWIRQHPGKGLEWIGHVYQSGQTAYNPKFENRATISVKTYKNQFSLKLSSVTAADTAVYYCARNYDTLTGHSYYYYGMDVWGQGTTVTVSS VL: DIQMTQSPSTLSASVGDRVTITCRASQSISNYLNWYQQKPGKAPKLLIYAASSLHSGVPSRFSGSGSGTDFTLTISSLQPEDFASYYCQQYQSYPLTFGQGTKVEIKR | 23.7 | 7.89 | 32 | 7.6 | 15.3 | 8.54 |  |  |  |  |
| LIBC529593-1 (Fab) (Fab, V domains shown) VH: QVQLQESGPGLVKPSQTLSLTCTVSGGSIRRGGDYWSWIRQHPGKGLEWIGHIYYSGSTNYNPSLRSRVRISVDTSKNQFSLKLSSVTAADTAVYYCARDYDILTGYSYYYYGLDVWGQGTTVTVSS VL: not shown |  |  |  |  |  |  | 0.38 | 1.42 | 1.14 | 1.06 |
| LIBC674153-1 (Fab on yeast) (Fab, V domains shown, Clone of the Fab-yeast libraries) VH: QVQLQESGPGLVKPSQTLSLTCTVSGGSIRRGGDYWSWIRQHPGKGLEWIGHVYYTGSTAYNPSFRGRVRISVNTYKNQFSLKLSSVTAADTAVYYCARGYDTSGYSYYYYGLDVWGQGTTVTVSS VL: not shown |  |  |  |  |  |  | 1.83 | 1.35 | 0.33 | 2.62 |
| LIBC673948-1 (Fab on yeast) (Fab, V domains shown, Clone of the Fab-yeast libraries) VH: QVQLQESGPGLVKPSQTLSLTCTVSGGSIRRGGDYWSWIRQHPGKGLEWIGHIYYTGSTKYNPSLKNRVRISVNTYKNQFSLKLSSVTAADTAVYYCARGYDVSGYSYYYYGLDVWGQGTTVTVSS VL: not shown |  |  |  |  |  |  | 0.64 | 1.37 | 0.48 | 2.46 |
| LIBC673965-1 (Fab on yeast) (Fab, V domains shown, Clone of the Fab-yeast libraries) VH: QVQLQESGPGLVKPSQTLSLTCTVSGGSIRRGGDYWSWIRQHPGKGLEWIGHVYYTGQTAYNPSLRGRVRISVNTYKNQFSLKLSSVTAADTAVYYCARGYDTSGYSYYYYGLDVWGQGTTVTVSS VL: not shown |  |  |  |  |  |  | 0.65 | 1.3 | 0.43 | 2.5 |
| LIBC673972-1 (Fab on yeast) (Fab, V domains shown, Clone of the Fab-yeast libraries) VH: QVQLQESGPGLVKPSQTLSLTCTVSGGSIRRGGDYWSWIRQHPGKGLEWIGHIYYTGQTAYNPNLRNRVRISVNTYKNQFSLKLSSVTAADTAVYYCARGYDASGYSYYYYGLDVWGQGTTVTVSS VL: not shown |  |  |  |  |  |  | 0.63 | 1.46 | 0.4 | 2.46 |
| LIBC673982-1 (Fab on yeast) (Fab, V domains shown, Clone of the Fab-yeast libraries) VH: QVQLQESGPGLVKPSQTLSLTCTVSGGSIRRGGDYWSWIRQHPGKGLEWIGHIYYTGSTTYNPSFRGRVRISVNTYKNQFSLKLSSVTAADTAVYYCARDYDISGYSYYYYGMDVWGQGTTVTVSS VL: not shown |  |  |  |  |  |  | 0.78 | 1.24 | 0.6 | 2.16 |
| LIBC674002-1 (Fab on yeast) (Fab, V domains shown, Clone of the Fab-yeast libraries) VH: QVQLQESGPGLVKPSQTLSLTCTVSGGSIRRGGDYWSWIRQHPGKGLEWIGHIYYKGSTEYNPSLRGRVRISVNTYKNQFSLKLSSVTAADTAVYYCARGYDVSGYSYYYYGLDVWGQGTTVTVSS VL: not shown |  |  |  |  |  |  | 0.46 | 1.49 | 0.03 | 2.59 |
| LIBC674024-1 (Fab on yeast) (Fab, V domains shown, Clone of the Fab-yeast libraries) VH: QVQLQESGPGLVKPSQTLSLTCTVSGGSIRRGGDYWSWIRQHPGKGLEWIGHVYQTGSTKYNPSFKNRVRISVNTYKNQFSLKLSSVTAADTAVYYCARGYDVSGYSYYYYGLDVWGQGTTVTVSS VL: not shown |  |  |  |  |  |  | 0.49 | 1.24 | 0.55 | 2.39 |
| LIBC674035-1 (Fab on yeast) (Fab, V domains shown, Clone of the Fab-yeast libraries) VH: QVQLQESGPGLVKPSQTLSLTCTVSGGSIRRGGDYWSWIRQHPGKGLEWIGHIYYAGQTKYNPSFKNRVRISVNTYKNQFSLKLSSVTAADTAVYYCARGYDISGYSYYYYGLDVWGQGTTVTVSS VL: not shown |  |  |  |  |  |  | 0.52 | 1.29 | 0.56 | 2.74 |
| LIBC674043-1 (Fab on yeast) (Fab, V domains shown, Original clone of the Fab-yeast libraries, without the R149S reversion) VH: QVQLQESGPGLVKPSQTLSLTCTVSGGSIRRGGDYWSWIRQHPGKGLEWIGHIYYTGQTTYNPNFKGRVRISVNTYKNQFSLKLSSVTAADTAVYYCARGYDASGYSYYYYGMDVWGQGTTVTVSR VL: not shown |  |  |  |  |  |  | 1.85 | 1.2 | 0.75 | 3.23 |
